Source: patent US20100278829A1, “DUAL INHIBITION OF IMMUNOPHILIN/CYCLOPHILIN FAMILY MEMBERS AND EMMPRIN IMMUNOGLOBULIN RECEPTOR SUPERFAMILY MEMBERS” (priority 2009, published 2010)
Where “and” joins values, the source holds several entries; their conditions need not be identical. Equal entries are not always repeated.

Tests used:
CD147 Pro211 = biological target: T1, CD147 Pro211 (Homo sapiens, UniProt P35613); assay: ZZ-exchange NMR of CypA-mediated peptidyl-prolyl isomerization of CD147; format: biochemical; settings: for kex (s−1), apparent catalytic exchange rate: [CD147^94-214]=0.5 mM
T1 construct: both containing 0.5 mM ^15N-CD147^94-214 at 25° C; made in house
T1 sequence (P35613 94-214 isoform P35613-2): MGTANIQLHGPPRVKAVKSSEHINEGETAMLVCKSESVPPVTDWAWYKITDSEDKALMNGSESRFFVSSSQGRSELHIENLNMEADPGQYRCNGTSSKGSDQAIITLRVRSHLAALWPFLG
Method: For ZZ-exchange experiments, the pulse scheme of Farrow et al. was employed with a selective adiabatic CHIRP pulse applied in the center of the mixing period for water suppression. (69) Two data sets were collected at 720 MHz on two samples with either 0.01 or 0.05 mM CypA and both containing 0.5 mM ^15N-CD147^94-214 at 25° C. and analyzed as previously described to calculate the apparent cis/trans exchange rate (kex). […] Equations (1a), (1b), (1c), and (1d) below were used to simultaneously fit the auto trans peak (Itt), the auto cis peak (Icc), the trans→cis exchange peak (Itc) and the cis→trans exchange peak (Ict), respectively, as a function of τm·Itt(0) and Icc(0) are the initial intensities of the trans and cis auto peaks, respectively, a11=R1t+ktc, a22=R1c+kct, a21=−ktc, and a12=−kct. Finally, under these conditions, ktc and kct can be recast as a function of their free Keq (Pcis/Ptrans=0.33/0.67), and thus, ktc=0.33 kex and kct=0.67 kex.
GraphPad Prism version 4.0 (GraphPad Software Inc., San Diego, Calif.) was used to simultaneously fit all resolvable peaks within CD147 residues 207-214.
ZZ-exchange was used to determine the apparent catalytic exchange rate of CypA-mediated peptidyl-prolyl isomerization of CD147 Pro211, providing a quantitative analysis of the active CypA/CD147 complex (FIG. 49). Specifically, two ZZ-exchange experiments were collected using identical concentrations of 0.5 mM 15N-CD147^94-214 but with two substoichiometric concentrations of the enzyme (i.e., catalytic concentrations) of 0.01 mM (FIG. 49A) and 0.05 mM (FIG. 49B) CypA. Under each condition, the apparent exchange rate (kex), which is the sum of the apparent cis-trans (i.e., kct) and […] (i.e., ktc) catalytic rates, was determined to quantify the rate enhancement of CypA-mediated catalysis (Table 1).

[1] = tested on: Human primary skin keratinocytes (Hka); assay: Cytokine stimulation of Hka, ECL and qRT-PCR readout; format: cell-based
Method: Cell stimulation. Primary T-cells, H9 cells and Th22 cells (1×10^6 cells/ml) were stimulated with PMA (1 ng/ml) and lonomycin (500 ng/ml) for 18 hrs at 37° C. HKa were stimulated with TNFα (1 ng/ml), TNFα (10 ng/ml)+PEG sTNF-RI (10 μg/ml), IL-1β (10 ng/ml), IL-1β ng/ml+IL-1ra 10 µg/ml, IL-1β ng /ml+TNFα 10 ng/ml and IL-32α or IL-32β for 24 hrs. Hka were stimulated with activated H9 and primary T-cells for 24 hrs at 37° C. PEGsTNF-RI and IL-1ra was obtained from Amgen (Thousand Oaks, Calif.).
ECL. A polyclonal antibody produced in rabbits against recombinant IL-32γ was used for ECL. IgG was prepared with Econo-Pac and then affinity purified through IL-32-immobilized agarose bead column of Affi-gel 15. An aliquot of the affinity purified anti-IL-32γ antibody was labeled with biotin and another aliquot with ruthenium according to the manufacturer's instructions (BioVeris, Gaithersburg, Md.). […] The liquid-phase ECL method was used to measure TNFα, IL-1β, IL-6, IL-8 and IL-32γ in human primary keratinocytes cell culture media and cell lysates in 0.5% Triton-X. The amount of ECL was determined by using an Origen Analyzer (BioVeris).
Quantitative real-time quantitative polymerase chain reaction (TaqMan) analysis (qRT-PCR). […] The amount of cDNA added to each reaction was held to a relatively narrow range, determined by the measurement of 18S RNA. […]

For “CypA: recombinant cyclophilin A, peptidyl-prolyl isomerase enzyme ligand of CD147”, the “kct (cis→trans catalytic rate)” value (CD147 Pro211; CypA:CD147 ratio of 1:10) was 40 s⁻¹, the “ktc (trans→cis catalytic rate)” value (CD147 Pro211; CypA:CD147 ratio of 1:10) was 20 s⁻¹ and the “kex (s−1), apparent catalytic exchange rate” value (CD147 Pro211; [CypA]=0.01 mM, 25° C.) was 9.6 ± 3.5 s⁻¹. For the same substance, the “kex (s−1), apparent catalytic exchange rate” value (CD147 Pro211; [CypA]=0.05 mM, 25° C.) was 44.3 ± 8.1 s⁻¹, the “kex extrapolated to the 1:1 / fully bound complex” value (CD147 Pro211; extrapolated with the peptide Kd, 25° C.) was ~6000 s⁻¹ and 4000 to 4800 s⁻¹ and the “kex (=kct+ktc)” value (CD147 Pro211; substoichiometric CypA concentrations) was ~60 s⁻¹.
With “rhuIL-1β: recombinant human IL-1β (R&D Systems) used as inflammatory stimulus” the “induction of cytoplasmic IL-32γ in Hka” value ([1]; ECL, cell lysates, +48 hours culture) was “induced highly significant (P<0.001) levels”.
For “IL1ra: recombinant human IL-1 receptor antagonist (Amgen)”, the “reversal of IL1β/TNFα-induced IL32γ gene expression in Hka” value ([1]; qRT-PCR, FIG. 36) was “reversed”.
